# Test results as given in patent US20190170753A1 (ICAHN SCHOOL OF MEDICINE AT MOUNT SINAI, published 2019).
# Where no end group is shown, it is not given here.
# Experiments:
# [1] = target: T1, Mut1T110N biotin labeled HCV core peptide (hepatitis C virus, biotin labeled (position not given)); assay: capture EIA; Ab 125 ng/mL; bt-peptide 500 ng/mL
# T1 peptide: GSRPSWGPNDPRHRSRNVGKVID
# [2] = target: T2, Mut6T110S biotin labeled HCV core peptide (hepatitis C virus, biotin labeled (position not given)); assay: capture EIA; Ab 125 ng/mL; bt-peptide 500 ng/mL
# [3] = target: T3, C113WT biotin labeled HCV core peptide (hepatitis C virus, also: biotin labeled, position not given here); assay: capture EIA; Ab 125 ng/mL; bt-peptide 500 ng/mL
# T3 peptide: RGSRPSWGPTD
# [4] = target: T4, C113T109N biotin labeled HCV core peptide (hepatitis C virus, also: biotin labeled, position not given here); assay: capture EIA; Ab 125 ng/mL; bt-peptide 500 ng/mL
# T4 construct: also called C113T110N
# T4 peptide: RGSRPSWGPND
# [5] = target: T5, 92-133 biotin labeled HCV core peptide (hepatitis C virus, UniProt Q9WMX2 92-133, chain 1: biotin label (bt-pep). Its position and any spacer are not visible in the passages shown.); assay: capture EIA; Ab 125 ng/mL; bt-peptide 500 ng/mL
# T5 construct: Only the label 92-133 is printed
# T5 peptide: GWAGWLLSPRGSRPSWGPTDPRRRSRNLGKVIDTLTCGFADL
# Protocol: (§1) Assay wells were coated with sheep anti-mouse IgG Fc specific antibody and incubated overnight. The coating solution was then removed; the wells blocked using BSA/tween in PBS and then washed with dH2O. […] Next, biotin labeled peptides (diluted to 500 ng/mL in block) were added, the plates incubated for 10 minutes while shaking at 700 rpm and then washed. Peroxidase conjugated streptavidin (diluted to 200 ng/mL in block) was then added to all assay wells, incubated for 20 minutes while shaking at 700 rpm and then washed. Finally, color was developed using OPD and signal quenched using 1N H₂SO₄. Signal was read at 492 nm.
# [6] = target: T6, WT1STHV biotin labeled HCV core peptide (hepatitis C virus, biotin labeled (position not given)); assay: capture EIA; Ab 125 ng/mL; bt-peptide 500 ng/mL
# T6 peptide: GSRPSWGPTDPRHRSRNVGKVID
# [7] = target: T1, Mut1T110N biotin labeled HCV core …; assay: capture EIA; Ab 1000 ng/mL; bt-peptide 500 ng/mL
# Protocol: as §1
# [8] = target: T2, Mut6T110S biotin labeled HCV core …; assay: capture EIA; Ab 1000 ng/mL; bt-peptide 500 ng/mL
# Protocol: as §1
# [9] = target: T3, C113WT biotin labeled HCV core peptide; assay: capture EIA; Ab 1000 ng/mL; bt-peptide 500 ng/mL
# Protocol: as §1
# [10] = target: T4, C113T109N biotin labeled HCV core …; assay: capture EIA; Ab 1000 ng/mL; bt-peptide 500 ng/mL
# Protocol: as §1
# [11] = target: T5, 92-133 biotin labeled HCV core peptide; assay: capture EIA; Ab 1000 ng/mL; bt-peptide 500 ng/mL
# Protocol: as §1
# [12] = target: T6, WT1STHV biotin labeled HCV core peptide; assay: capture EIA; Ab 1000 ng/mL; bt-peptide 500 ng/mL
# Protocol: as §1
# [13] = target: T1, Mut1T110N biotin labeled HCV core …; assay: capture EIA; Ab 62.5 ng/mL; bt-peptide 500 ng/mL
# Protocol: as §1
# [14] = target: T2, Mut6T110S biotin labeled HCV core …; assay: capture EIA; Ab 62.5 ng/mL; bt-peptide 500 ng/mL
# Protocol: as §1
# [15] = target: T3, C113WT biotin labeled HCV core peptide; assay: capture EIA; Ab 62.5 ng/mL; bt-peptide 500 ng/mL
# Protocol: as §1
# [16] = target: T4, C113T109N biotin labeled HCV core …; assay: capture EIA; Ab 62.5 ng/mL; bt-peptide 500 ng/mL
# Protocol: as §1
# [17] = target: T5, 92-133 biotin labeled HCV core peptide; assay: capture EIA; Ab 62.5 ng/mL; bt-peptide 500 ng/mL
# Protocol: as §1
# [18] = target: T6, WT1STHV biotin labeled HCV core peptide; assay: capture EIA; Ab 62.5 ng/mL; bt-peptide 500 ng/mL
# Protocol: as §1
# [19] = target: T4, C113T109N biotin labeled HCV core …; assay: capture EIA; Ab 1.953 ng/mL; bt-peptide 500 ng/mL
# Protocol: as §1
# [20] = target: T6, WT1STHV biotin labeled HCV core peptide; assay: capture EIA; Ab 3.906 ng/mL; bt-peptide 500 ng/mL
# Protocol: as §1
# [21] = target: T1, Mut1T110N biotin labeled HCV core …; assay: capture EIA; Ab 15.6 ng/mL; bt-peptide 500 ng/mL (summary of Table 7)
# Protocol: as §1
# [22] = target: T2, Mut6T110S biotin labeled HCV core …; assay: as above
# Protocol: as §1
# [23] = target: T3, C113WT biotin labeled HCV core peptide; assay: as above
# Protocol: as §1
# [24] = target: T4, C113T109N biotin labeled HCV core …; assay: as above
# Protocol: as §1
# [25] = target: T5, 92-133 biotin labeled HCV core peptide; assay: as above
# Protocol: as §1
# [26] = target: T6, WT1STHV biotin labeled HCV core peptide; assay: as above
# Protocol: as §1
binder,measurement,setting,value
"Neo4 mouse monoclonal antibody (antibody, V domains shown, Mouse hybridoma antibody, isotype IgG1, purified with Protein G; also called HCV Neo4) VH: QIQLKESGPAVIKPSQSLSLTCIVSGFSITSSVYCWQWIRQPPGKGLEWMGRICYDGSVDYSPSITSRGTISRDTSLNKVFFQLSSVTNEDTAMYYCSRENHIDYYDTTYPSFDVWGAGTTVTVSS VL: DIVLTQSPASLIVSLGQRATISCRASKSVNEYGYTYMHWYQQKPGLPPKLLIYLASNLDSGVPARFSGSGSGTDFTLNIHPVEEEDAATYYCQHSRELPYTFGGGTKLEIKR",signal at 492 nm,[1],0.204 A492
same,signal at 492 nm,[2],1.27 A492
same,signal at 492 nm,[3],0.0599 A492
same,signal at 492 nm,[4],0.0858 A492
same,signal at 492 nm,[5],1.31 A492
same,signal at 492 nm,[6],1.93 A492
same,signal at 492 nm,[7],0.0678 A492
same,signal at 492 nm,[8],1.17 A492
same,signal at 492 nm,[9],0.222 A492
same,signal at 492 nm,[10],0.0591 A492
same,signal at 492 nm,[11],1.41 A492
same,signal at 492 nm,[12],2 A492
same,signal at 492 nm,[13],0.139 A492
same,signal at 492 nm,[14],1.11 A492
same,signal at 492 nm,[15],0.0626 A492
same,signal at 492 nm,[16],0.111 A492
same,signal at 492 nm,[17],1.47 A492
same,signal at 492 nm,[18],1.85 A492
same,signal at 492 nm,[19],0.0853 A492
same,signal at 492 nm,[20],0.669 A492
same,signal at 492 nm,[21],0.0771 A492
same,signal at 492 nm,[22],0.25 A492
same,signal at 492 nm,[23],0.0697 A492
same,signal at 492 nm,[24],0.0736 A492
same,signal at 492 nm,[25],0.806 A492
same,signal at 492 nm,[26],1.42 A492
